The target in data set [1] is DesV (SLG_28320 gene product), His-tag fused (Sphingobium sp. SYK-6). In words: SEC; Superdex200 10/300GL, 50 mM KH2PO4-K2HPO4 buffer (pH 7.0) with 150 mM NaCl, 0.5 ml/min; native mass estimated and compared with the monomer size.
Data set [2] addresses LigV (vanillin dehydrogenase), His-tag fused (Sphingobium sp. SYK-6). The data set is described as above.
Data set [3] concerns T1, COc1cc(C=O)cc(OC)c1O.
T1 construct: calculated Mr 55,173; dimer 120 kDa
In words: HPLC, Hanes-Woolf plot. Format: biochemical, Sphingobium sp. SYK-6. The note with it: 500 μM NAD+, pH 7.0 phosphate buffer, 30 °C. An excerpt:
(§1) HPLC, Hanes-Woolf plot on DesV (SLG_28320)

Data set [4] relates to T2, COc1cc(C=O)ccc1O.
T2 construct: calculated Mr 55,173; dimer 120 kDa
In words: HPLC, Hanes-Woolf plot. Format: biochemical, Sphingobium sp. SYK-6. Particulars: 500 μM NAD+, pH 7.0 phosphate buffer, 30 °C.
Text: as §1

We go through three substances from paper PMC5353671, “A bacterial aromatic aldehyde dehydrogenase critical for the efficient catabolism of syringaldehyde” (Scientific Reports, 2017).

Chain of DesV (SLG_28320) (Sphingobium sp. SYK-6) (chain, as listed by the source): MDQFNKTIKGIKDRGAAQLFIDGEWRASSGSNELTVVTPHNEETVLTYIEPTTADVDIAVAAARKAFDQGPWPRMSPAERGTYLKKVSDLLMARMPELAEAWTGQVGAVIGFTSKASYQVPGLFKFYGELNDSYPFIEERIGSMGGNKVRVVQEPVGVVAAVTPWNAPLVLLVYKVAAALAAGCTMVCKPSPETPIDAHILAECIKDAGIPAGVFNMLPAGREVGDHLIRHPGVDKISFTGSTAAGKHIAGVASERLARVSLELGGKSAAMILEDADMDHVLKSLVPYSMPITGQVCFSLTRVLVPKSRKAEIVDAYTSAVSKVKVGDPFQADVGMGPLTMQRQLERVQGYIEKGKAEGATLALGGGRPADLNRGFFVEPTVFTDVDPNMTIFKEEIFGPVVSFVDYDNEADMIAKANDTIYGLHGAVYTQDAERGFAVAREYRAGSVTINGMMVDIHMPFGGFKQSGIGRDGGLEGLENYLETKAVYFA

As for “DesV (SLG_28320 gene product), His-tag fused (enzyme)”, the stoichiometry N in data set [1] was 2.
For “LigV (vanillin dehydrogenase), His-tag fused (enzyme)”, the stoichiometry N in data set [2] was 4.
With “DesV (SLG_28320) (Sphingobium sp. SYK-6)”, in data set [3], the Km was found to be 0.48 ± 0.03 µM, the Vmax came out at 1.08 µmol/min/mg, the kcat came to 0.99 ± 0.01 s⁻¹ and the kcat/Km was 2.1e+06 ± 93000 M⁻¹ s⁻¹. For the same substance, in data set [4], the Km is 0.47 ± 0.04 µM, the Vmax is 0.85 µmol/min/mg, the kcat amounted to 0.79 ± 0.01 s⁻¹ and the kcat/Km worked out at 1.7e+06 ± 140000 M⁻¹ s⁻¹.

Broadly, the stoichiometry N is the number of molecules, sites or subunits per partner or assembly. The term Km denotes the concentration of substrate that gives half-maximal velocity. For orientation: Vmax means the top rate of the reaction or transport when substrate is in excess. Broadly, the kcat is the number of substrate molecules converted per active site and unit of time at saturation. The term kcat/Km denotes the second-order rate constant that governs catalysis at low substrate concentration.
